Reference: the supplement of paper PMC9112550, “Optimization of the antimicrobial peptide Bac7 by deep mutational scanning” (BMC Biology, 2022)

Tested on: Escherichia coli TOP10
Assay: shrunken log2 fold change of peptide-encoding DNA abundance (4.5 h post-induction vs induction); higher = less antimicrobial activity (less host growth inhibition)
Details: time post-induction: 4.5 h; library: site-saturation at positions 5, 18, 19, 20
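Note: peptides expressed intracellularly from a pBAD plasmid library in pooled LB shake-flask culture, induced with 0.3% L-arabinose, DNA abundance read by NGS, three biological replicates, DESeq2 with apeglm shrinkage.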

Sequence	shrunken log2 fold change
RRIRKRPPRLPRPRPRPCSYPRP	-0.0348
RRIRMRPPRLPRPRPRPLLDPRP	0.409
RRIRMRPPRLPRPRPRPEAAPRP	3.45
RRIRDRPPRLPRPRPRPAWTPRP	-0.0791
RRIRQRPPRLPRPRPRPHAVPRP	-0.0835
RRIRDRPPRLPRPRPRPHTYPRP	-0.163
RRIRPRPPRLPRPRPRPVQHPRP	0.278
RRIRARPPRLPRPRPRPAVMPRP	0.399
RRIRSRPPRLPRPRPRPRNYPRP	-0.465
RRIRERPPRLPRPRPRPFRAPRP	0.0204
RRIRVRPPRLPRPRPRPSKAPRP	0.0587
RRIRVRPPRLPRPRPRPWHMPRP	-0.672
RRIRPRPPRLPRPRPRPEFLPRP	-0.101
RRIRFRPPRLPRPRPRPNTQPRP	-0.309
RRIRNRPPRLPRPRPRPHTRPRP	0.0907
RRIRGRPPRLPRPRPRPFLLPRP	0.206
RRIRCRPPRLPRPRPRPFDFPRP	-0.342
RRIRPRPPRLPRPRPRPAMSPRP	0.128
RRIRPRPPRLPRPRPRPTCDPRP	0.052
RRIRYRPPRLPRPRPRPLPPPRP	0.0954
RRIRARPPRLPRPRPRPEGMPRP	1.2
RRIRERPPRLPRPRPRPIDTPRP	-0.113
RRIRHRPPRLPRPRPRPIPRPRP	-0.0447
RRIRLRPPRLPRPRPRPAVWPRP	0.72
RRIRIRPPRLPRPRPRPLMNPRP	-0.94

Sequence	shrunken log2 fold change
RRIRCRPPRLPRPRPRPNPKPRP	0.055
RRIRLRPPRLPRPRPRPPGMPRP	0.197
RRIRLRPPRLPRPRPRPKSRPRP	-0.176
RRIRTRPPRLPRPRPRPKPPPRP	0.353
RRIRNRPPRLPRPRPRPHNFPRP	-0.436
RRIRMRPPRLPRPRPRPLRPPRP	1.76
RRIRCRPPRLPRPRPRPREWPRP	-0.0656
RRIRYRPPRLPRPRPRPENIPRP	-0.105
RRIRKRPPRLPRPRPRPREGPRP	1.08
RRIRSRPPRLPRPRPRPVTYPRP	-0.273
RRIRRRPPRLPRPRPRPSGTPRP	0.494
RRIRCRPPRLPRPRPRPAAGPRP	0.378
RRIRCRPPRLPRPRPRPFKGPRP	0.0401
RRIRERPPRLPRPRPRPSLHPRP	-0.309
RRIRQRPPRLPRPRPRPRQDPRP	0.243
RRIRLRPPRLPRPRPRPEIQPRP	-0.0217
RRIRMRPPRLPRPRPRPECGPRP	2.7
RRIRKRPPRLPRPRPRPMRFPRP	0.123
RRIRRRPPRLPRPRPRPPAGPRP	0.753
RRIRGRPPRLPRPRPRPATRPRP	0.94
RRIRTRPPRLPRPRPRPGTLPRP	0.16
RRIRMRPPRLPRPRPRPADIPRP	0.067
RRIRERPPRLPRPRPRPGIQPRP	-0.398
RRIRMRPPRLPRPRPRPCVPPRP	0.209
RRIRQRPPRLPRPRPRPPMTPRP	-0.268

Sequence	shrunken log2 fold change
RRIRIRPPRLPRPRPRPGGSPRP	-0.0491
RRIRRRPPRLPRPRPRPGEGPRP	0.747
RRIRNRPPRLPRPRPRPTFVPRP	-0.185
RRIRQRPPRLPRPRPRPCYFPRP	-0.734
RRIRTRPPRLPRPRPRPTESPRP	-0.0539
RRIRNRPPRLPRPRPRPMWSPRP	-0.095
RRIRCRPPRLPRPRPRPHCDPRP	-0.579
RRIRPRPPRLPRPRPRPFNFPRP	-0.155
RRIRFRPPRLPRPRPRPYWLPRP	-0.234
RRIRYRPPRLPRPRPRPNHGPRP	-0.0102
RRIRGRPPRLPRPRPRPPNKPRP	0.528
RRIRTRPPRLPRPRPRPQFTPRP	-0.0397
RRIRPRPPRLPRPRPRPVVCPRP	0.53
RRIRVRPPRLPRPRPRPWPNPRP	0.179
RRIRIRPPRLPRPRPRPAPHPRP	-0.0179
RRIRSRPPRLPRPRPRPSQCPRP	-0.265
RRIRQRPPRLPRPRPRPYQNPRP	-0.816
RRIRWRPPRLPRPRPRPMPQPRP	0.178
RRIRMRPPRLPRPRPRPLTHPRP	0.0406
RRIRLRPPRLPRPRPRPSDPPRP	-0.0539
RRIRNRPPRLPRPRPRPNYVPRP	-0.0488
RRIRYRPPRLPRPRPRPYNAPRP	-0.471
RRIRRRPPRLPRPRPRPKCLPRP	0.144
RRIRTRPPRLPRPRPRPRRVPRP	0.329
RRIRSRPPRLPRPRPRPHHVPRP	-0.243

Sequence	shrunken log2 fold change
RRIRRRPPRLPRPRPRPYSKPRP	-0.129
RRIRNRPPRLPRPRPRPHGSPRP	-0.00146
RRIRARPPRLPRPRPRPFFKPRP	-0.0427
RRIRNRPPRLPRPRPRPDSPPRP	-0.0758
RRIRDRPPRLPRPRPRPLASPRP	0.171
RRIRNRPPRLPRPRPRPKLGPRP	0.055
RRIRHRPPRLPRPRPRPIQQPRP	-0.15
RRIRKRPPRLPRPRPRPRMVPRP	0.168
RRIRARPPRLPRPRPRPELHPRP	0.964
RRIRVRPPRLPRPRPRPSFFPRP	-0.2
RRIRRRPPRLPRPRPRPRGMPRP	0.907
RRIRTRPPRLPRPRPRPYIGPRP	-0.119
RRIRGRPPRLPRPRPRPMIHPRP	-0.0642
RRIRNRPPRLPRPRPRPESEPRP	0.0333
RRIRTRPPRLPRPRPRPEQHPRP	0.0492
RRIRLRPPRLPRPRPRPGNNPRP	-0.58
RRIRERPPRLPRPRPRPLEAPRP	0.105
RRIRKRPPRLPRPRPRPRYLPRP	-0.179
RRIRTRPPRLPRPRPRPWIKPRP	-0.231
RRIRYRPPRLPRPRPRPVLVPRP	-0.507
RRIRYRPPRLPRPRPRPHYDPRP	-0.557
RRIRGRPPRLPRPRPRPGVAPRP	1.53
RRIRWRPPRLPRPRPRPHHRPRP	-0.214
RRIRLRPPRLPRPRPRPHVAPRP	0.0259
RRIRARPPRLPRPRPRPSQWPRP	0.24

Sequence	shrunken log2 fold change
RRIRHRPPRLPRPRPRPFDMPRP	-0.00783
RRIRQRPPRLPRPRPRPPKQPRP	-0.0279
RRIRKRPPRLPRPRPRPDLMPRP	0.0729
RRIRGRPPRLPRPRPRPIIVPRP	-0.043
RRIRPRPPRLPRPRPRPMELPRP	-0.00106
RRIRTRPPRLPRPRPRPNEPPRP	-0.102
RRIRFRPPRLPRPRPRPFNLPRP	-0.66
RRIRYRPPRLPRPRPRPYAYPRP	-0.948
RRIRNRPPRLPRPRPRPIDQPRP	-0.058
RRIRVRPPRLPRPRPRPKQRPRP	0.157
RRIRMRPPRLPRPRPRPVYPPRP	0.166
RRIRNRPPRLPRPRPRPLYSPRP	-0.761
RRIRRRPPRLPRPRPRPPMPPRP	0.568
RRIRMRPPRLPRPRPRPPQDPRP	1.24
RRIRDRPPRLPRPRPRPVLSPRP	-0.0284
RRIRFRPPRLPRPRPRPESAPRP	0.428
RRIRPRPPRLPRPRPRPSFTPRP	-0.213
RRIRIRPPRLPRPRPRPVGYPRP	0.0961
RRIRSRPPRLPRPRPRPPCWPRP	0.29
RRIRERPPRLPRPRPRPVDMPRP	-0.107
RRIRWRPPRLPRPRPRPAHGPRP	0.707
RRIRTRPPRLPRPRPRPHIVPRP	-0.102
RRIRIRPPRLPRPRPRPIRLPRP	-0.41
RRIRHRPPRLPRPRPRPCLHPRP	-0.0114
RRIRSRPPRLPRPRPRPENYPRP	-0.127

Sequence	shrunken log2 fold change
RRIRTRPPRLPRPRPRPVWLPRP	-0.101
RRIRIRPPRLPRPRPRPRHRPRP	-0.0972
RRIRFRPPRLPRPRPRPVPWPRP	0.0558
RRIRPRPPRLPRPRPRPSQAPRP	0.106
RRIRSRPPRLPRPRPRPKCHPRP	-0.31
RRIRQRPPRLPRPRPRPGTPPRP	0.000485
RRIRVRPPRLPRPRPRPGTGPRP	0.148
RRIRNRPPRLPRPRPRPAHVPRP	-0.0508
RRIRHRPPRLPRPRPRPYTHPRP	-1.46
RRIRHRPPRLPRPRPRPTGMPRP	0.156
RRIRVRPPRLPRPRPRPTMKPRP	-0.461
RRIRVRPPRLPRPRPRPSHNPRP	-0.692
RRIRIRPPRLPRPRPRPDAIPRP	0.0309
RRIRIRPPRLPRPRPRPFMDPRP	-1.07
RRIRIRPPRLPRPRPRPRDAPRP	0.215
RRIRQRPPRLPRPRPRPYKMPRP	-0.292
RRIRIRPPRLPRPRPRPAHVPRP	-0.0796
RRIRQRPPRLPRPRPRPTSPPRP	0.218
RRIRRRPPRLPRPRPRPCREPRP	0.0134
RRIRIRPPRLPRPRPRPEQGPRP	0.0755
RRIRQRPPRLPRPRPRPNNWPRP	-0.0942
RRIRLRPPRLPRPRPRPDINPRP	-0.665
RRIRIRPPRLPRPRPRPMPPPRP	-0.0836
RRIRQRPPRLPRPRPRPERMPRP	0.0275
RRIRKRPPRLPRPRPRPQLSPRP	-0.272
